Experiment [1] deals with scavenger receptor CD36. In words: flow cytometry on CD36-transfected CHO cells, rAv17 at 2.5 µg/ml; baseline 20%. In general terms: Flow cytometry measures light scatter and fluorescence of single cells or particles in a stream.
Experiment [2] has as its target scavenger receptor CD36. In words: flow cytometry on CD36-transfected CHO cells, rAv17 at 5 µg/ml; baseline 20%.

“recombinant Acanthocheilonema viteae cystatin (rAv17)”: the fluorescence positive cells in the experiment with scavenger receptor CD36 [1] turned out to be 71%; in the experiment with scavenger receptor CD36 [2] it was 89%.

(Values after US20120184485A1.)
